This note sets out measurements from article PMC6927759.

The target of assay [1] is human IL-13 (Homo sapiens) (UniProt P35225). The assay is described as follows: SPR.
The target of assay [2] is anti-IL-13 IgG4 variant VH Y98L (human (humanized antibody)). Description: SPR.

In assay [1], “anti-IL-13 IgG4 (lebrikizumab), parent (antibody)” yielded a kon of 2.16e+06 M⁻¹ s⁻¹.

Consider “anti-IL-13 IgG4 variant VH Y97L (antibody)”, for which, in assay [1], the Kd was below 0.01 nM, the koff is below 0.0001 s⁻¹ and the kon is 2.08e+06 M⁻¹ s⁻¹.

“anti-IL-13 IgG4 variant VH Y100Q (antibody)”: in assay [1], the Kd stood at 3.32 nM and the koff was determined as 0.00331 s⁻¹.

Consider “human IL-13 (from UniProt P35225 25-146) (ligand)”, for which, in assay [2], the Kd was 0.0753 nM, the koff was 8.76e-05 s⁻¹ and the kon is 1.16e+06 M⁻¹ s⁻¹.
